# Results published in PMC9279156, “A peroxisomal ubiquitin ligase complex forms a retrotranslocation channel” (Nature, 2022).
# T1: T. thermophilus Pex12 (1–439) with an N-terminal SBP tag (Thermothelomyces thermophilus, UniProt G2Q5N0 1-439)
# T1 construct: Pex12 of Thermothelomyces thermophilus, residues 1-439; codon-optimised synthetic gene; the SBP tag is followed by a HRV3C protease cleavage site; also called T.t; Pex12; source: P. pastoris SMD1168, co-expressed with Pex2 and Pex10, purified (streptavidin resin, gel filtration) in digitonin; not shown: SBP, N-terminal, kept
# T1 sequence (looked up): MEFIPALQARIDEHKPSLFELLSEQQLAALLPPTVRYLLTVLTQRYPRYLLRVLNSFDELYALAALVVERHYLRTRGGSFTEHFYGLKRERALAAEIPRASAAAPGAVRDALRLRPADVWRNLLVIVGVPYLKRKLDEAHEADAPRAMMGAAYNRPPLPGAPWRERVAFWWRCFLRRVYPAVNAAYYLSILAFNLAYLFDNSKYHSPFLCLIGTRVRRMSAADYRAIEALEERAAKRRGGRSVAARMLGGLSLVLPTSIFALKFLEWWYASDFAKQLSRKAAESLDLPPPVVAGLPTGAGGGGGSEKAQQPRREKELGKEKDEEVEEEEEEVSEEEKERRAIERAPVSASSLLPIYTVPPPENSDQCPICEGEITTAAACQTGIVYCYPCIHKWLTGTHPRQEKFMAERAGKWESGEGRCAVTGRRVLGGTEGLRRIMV
# Molecular target: T1, T. thermophilus Pex12 (1–439) with an …
# Assay: pull-down + SEC; Pex2, Pex10 and SBP-Pex12 co-expressed in P. pastoris; membranes solubilised in 1% LMNG; captured on streptavidin resin through SBP-Pex12, eluted with biotin, gel filtration (Superose 6) in 25 mM HEPES pH 7.4, 150 mM NaCl, 0.05% digitonin; fractions by SDS-PAGE and Coomassie staining
# Details: partners not purified
row,stoichiometry N,Binder
1,1,"T. thermophilus Pex2 (140–495) (domain or fragment, Thermothelomyces thermophilus, UniProt G2Q1C9 140-495, looked up, Pex2 of Thermothelomyces thermophilus, residues 140-495; codon-optimised synthetic gene; also called T.t; Pex2; source: P. pastoris SMD1168, co-expressed with Pex10 and Pex12, purified (streptavidin resin, gel filtration) in digitonin) SREGTRPAFRVGQVDAELLDEELVELLRGQVREALRYVGGGGGGGGGGGGGGVGSGVAQDWEAEISLALRAVLFKLTVWDHDATYGAALQNLKYTDARRDGPALAPPSRWQKALYGLVTVGGRYLWAKWEDWLLEQDDGFEGPSPRVKRLARWTSALSTLHASAALVSFLVFLLHGRYRTLLDRLLRMRLAPPTSQVSREVSFEYLNRQLVWHAFTEFLLFVLPLVGINRWRRWLARTWRRTKKIMTADADGGAGDKKGEYSFLPERTCAICYRDQNSASSETELLAAASGGVVGSAQTDITNPYEAIPCGCTYCFVCLATRIEREEGEGWPCLRCGELIKECKPWNGDVLEEPQV"
2,1,"T. thermophilus Pex10 (1–454) (natural protein, Thermothelomyces thermophilus, UniProt G2Q0E2 1-454, looked up, Pex10 of Thermothelomyces thermophilus, residues 1-454; codon-optimised synthetic gene; also called T.t; Pex10; source: P. pastoris SMD1168, co-expressed with Pex2 and Pex12, purified (streptavidin resin, gel filtration) in digitonin) MATQPPPARPPPPLTSSPYPYAAAPDIIRAHQKDAYFQGVLANRLSDLHRRLRGARSAHAWAAETRTFAAALYLCLTTLLGNRTLGEEYCDLVQVEEAPSKLFASSSSKAADDHIYENGLGGGGDGGPLLPSLPRRAGYILTAIVLPHLASRALPSVRSAIRKRLQSRLATLSRRRQQTGTKSGSGRGGRGGGGGITEYRVLRYLLTHLTPLTSGAHFRAATLAVFYFTGAYYELSKWVWGLRYVFTTRAGRVVDDDHNRHHHSPQHGGGNGGRAGYEVLGVLLVVQMAVRAWLHVREQLSSGSVAGGGGEEEEDGEDGFRERTAFGPGTNVDVSLDEHAFTSNNELLGGGGGGGGSSSQRSLGEIGAMAHTPVLKAGRARYDLGTSDKVMGWIKGAQQRKCTLCLEELKDPAATQCGHVFCWACIGDWVREKPECPLCRREAMVQHILPLRAA"
